# Like-named read-outs stand apart in the source and are kept apart here.
# What was measured:
# Ddn = Ddn (Mycobacterium tuberculosis, UniProt P9WP15); test: F420H2 oxidation, absorbance at […] nm
# [1] = test system: COC1=C(OC)C(=O)C(C/C=C(\C)CCC=C(C)C)=C(C)C1=O; test: purified protein; conditions: pH 8.0
# [2] = test system: COC1=C(OC)C(=O)C(CC=C(C)C)=C(C)C1=O; test: purified protein; conditions: pH 8.0
# [3] = test system: COC1=C(OC)C(=O)C(C)=CC1=O; test: purified protein; conditions: pH 8.0
# [4] = test system: CC1=C(C)C(=O)c2ccccc2C1=O; test: purified protein; conditions: pH 8.0
# CC1=CC(=O)c2ccccc2C1=O = test: purified protein
# [5] = co-substrate 100 μM F420H2, 200 mM Tris-HCl pH 8.0, 0.01% Triton X-100
# Chain of Ddn (P9WP15 whole entry): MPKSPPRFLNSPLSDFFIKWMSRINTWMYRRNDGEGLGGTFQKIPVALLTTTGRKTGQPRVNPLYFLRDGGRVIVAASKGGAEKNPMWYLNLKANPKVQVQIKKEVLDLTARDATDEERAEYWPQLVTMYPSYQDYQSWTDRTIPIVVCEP
molecule,measurement,setting,value
"O=C1C=CC(=O)c2ccccc21 [1,4-naphthoquinone]",Km,Ddn; [5],2.23 ± 1.19 µM
O=[N+]([O-])c1cn2c(n1)OC[C@@H](OCc1ccc(OC(F)(F)F)cc1)C2 [PA-824],Km,Ddn,28.6 ± 3.55 µM
CC1=CC(=O)c2c(O)cccc2C1=O [Plumbagin],Km,Ddn; [5],2.17 ± 2.74 µM
(Mycobacterium tuberculosis H37Rv),Km,[1],3.14 ± 0.97 µM
same,kcat/Km,[1],28800 M⁻¹ s⁻¹
same,Km,[2],10.12 ± 2.23 µM
same,kcat/Km,[2],3500 M⁻¹ s⁻¹
same,Km,[3],12.35 ± 2.65 µM
same,kcat/Km,[3],1670 M⁻¹ s⁻¹
same,Km,[4],2.21 ± 0.98 µM
same,kcat/Km,[4],40500 M⁻¹ s⁻¹
same,Km,CC1=CC(=O)c2ccccc2C1=O,2.09 ± 0.91 µM
same,kcat/Km,CC1=CC(=O)c2ccccc2C1=O,255000 M⁻¹ s⁻¹
same,Km,CC1=CC(=O)c2ccccc2C1=O; pH 8.0,3.44 ± 1.27 µM
same,kcat/Km,CC1=CC(=O)c2ccccc2C1=O; pH 8.0,86000 M⁻¹ s⁻¹

# Source: article PMC3567243 (Molecular Microbiology, 2012)
